Experimental data from patent publication US20220259330A1 (SUNSHINE GUOJIAN PHARMACEUTICAL SHANGHAI, published 2022).
Substitutions are numbered along the chain they refer to. In names and notes the source's numbering stands. Several values for one entry are separate records, joined by “and”; a condition that tells them apart may be missing. Equal entries are not always repeated.

B1: 609-Fab-137-IgG4 (bispecific antibody)
heavy: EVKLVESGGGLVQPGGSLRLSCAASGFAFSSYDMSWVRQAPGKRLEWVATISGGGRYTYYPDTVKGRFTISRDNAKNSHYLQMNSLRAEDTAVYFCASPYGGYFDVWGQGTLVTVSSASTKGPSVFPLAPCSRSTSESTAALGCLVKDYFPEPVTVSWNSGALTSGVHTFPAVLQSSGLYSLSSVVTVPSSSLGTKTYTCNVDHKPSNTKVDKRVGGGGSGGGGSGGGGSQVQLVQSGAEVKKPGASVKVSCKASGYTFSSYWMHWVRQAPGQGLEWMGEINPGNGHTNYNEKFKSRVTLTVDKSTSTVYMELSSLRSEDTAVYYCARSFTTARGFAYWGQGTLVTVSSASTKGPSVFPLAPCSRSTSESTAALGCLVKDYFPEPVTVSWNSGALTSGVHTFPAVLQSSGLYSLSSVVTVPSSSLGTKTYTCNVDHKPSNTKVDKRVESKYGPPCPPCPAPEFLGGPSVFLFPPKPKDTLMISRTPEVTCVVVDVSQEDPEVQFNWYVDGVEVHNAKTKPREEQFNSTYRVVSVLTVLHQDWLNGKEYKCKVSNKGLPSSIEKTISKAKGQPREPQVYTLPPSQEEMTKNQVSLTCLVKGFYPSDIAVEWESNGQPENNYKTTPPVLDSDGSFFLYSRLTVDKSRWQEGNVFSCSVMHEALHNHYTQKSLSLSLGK
light: EIVMTQSPDFQSVTPKEKVTITCRASQTISDYLHWYQQKPDQSPKLLIKYASQSISGIPSRFSGSGSGSDFTLTINSLEAEDAATYYCQDGHSFPPTFGQGTKVEIKRTVAAPSVFIFPPSDEQLKSGTASVVCLLNNFYPREAKVQWKVDNALQSGNSQESVTEQDSKDSTYSLSSTLTLSKADYEKHKVYACEVTHQGLSSPVTKSFNRGEC
B2: 137-Fab-609-IgG4 (bispecific antibody)
heavy: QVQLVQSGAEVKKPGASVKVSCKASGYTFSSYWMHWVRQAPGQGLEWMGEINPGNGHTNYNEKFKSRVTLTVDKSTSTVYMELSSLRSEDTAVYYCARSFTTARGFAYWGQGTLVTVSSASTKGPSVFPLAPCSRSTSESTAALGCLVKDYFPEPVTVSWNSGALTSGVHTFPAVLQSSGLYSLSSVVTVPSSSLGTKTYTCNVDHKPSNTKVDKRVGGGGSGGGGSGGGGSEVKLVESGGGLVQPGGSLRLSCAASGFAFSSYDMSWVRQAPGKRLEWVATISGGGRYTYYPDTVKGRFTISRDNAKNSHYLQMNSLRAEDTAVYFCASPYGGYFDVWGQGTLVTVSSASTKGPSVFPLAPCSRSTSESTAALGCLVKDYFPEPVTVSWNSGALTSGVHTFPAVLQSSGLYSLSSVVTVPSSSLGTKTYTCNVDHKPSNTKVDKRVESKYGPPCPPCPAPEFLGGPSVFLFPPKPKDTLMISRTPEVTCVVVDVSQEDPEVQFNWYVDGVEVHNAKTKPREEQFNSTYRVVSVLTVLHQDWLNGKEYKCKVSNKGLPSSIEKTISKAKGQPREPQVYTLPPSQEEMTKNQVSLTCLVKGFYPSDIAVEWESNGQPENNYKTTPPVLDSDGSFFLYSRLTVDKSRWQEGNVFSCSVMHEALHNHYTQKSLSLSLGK
light: B1 light
B3: Anti-CD137-Hu (antibody, human IgG4 S228P, kappa, V domains shown)
VH: QVQLVQSGAEVKKPGASVKVSCKASGYTFSSYWMHWVRQAPGQGLEWMGEINPGNGHTNYNEKFKSRVTLTVDKSTSTVYMELSSLRSEDTAVYYCARSFTTARGFAYWGQGTLVTVSS
VL: EIVMTQSPDFQSVTPKEKVTITCRASQTISDYLHWYQQKPDQSPKLLIKYASQSISGIPSRFSGSGSGSDFTLTINSLEAEDAATYYCQDGHSFPPTFGQGTKVEIKR
notes: Humanized anti-human CD137, IgG4 (S228P), kappa; also called humanized 4B4-1-1
B4: Anti-CD137-Hu-HC+609-LC (antibody, human IgG4 S228P, kappa, V domains shown)
VH: B3 VH
VL: EIVLTQSPATLSLSPGERATLSCRASQSISNFLHWYQQKPGQAPRLLIKYASQSISGIPARFSGSGSGTDFTLTISSLEPEDFAVYFCQQSNSWPHTFGQGTKVEIKR
notes: Hybrid antibody
B5: 19H6-Hu-HC+94-Hu-LC (antibody, human IgG1, kappa, V domains shown)
VH: QVQLVQSGAEVKKPGASVKVSCKGSGYTFTDYAIHWVRQAPGQSLEWIGVFSIYYENINYNQKFKGRATMTVDKSTSTAYMELRSLRSDDTAVYYCARRDGGTINYWGQGTLVTVSS
VL: DVVMTQSPLSLPVTLGQPASISCRSSQSLLHSNGNTYLHWYQQRPGQSPRLLFYKVSNRFSGVPDRFSGSGSGTDFTLKISRVEAEDVGVYFCSQSTHVPWTFGQGTKVEIKR
notes: Hybrid antibody
B6: 94-Hu (antibody, human IgG1, kappa, V domains shown)
VH: QVQLQESGPGLVKPSETLSLTCTVSGFSLSSYDISWIRQPPGKGLEWLGVIWTGGGTNYNSAFMSRLTISKDNSKSQVSLKLSSVTAADTAVYYCVRMDYWGQGTLVTVSS
VL: B5 VL
notes: Humanized anti-human CD137, IgG1, kappa; also called 94-Hu-HC+94-Hu-LC
B7: 94-Hu-HC+19H6-Hu-LC (antibody, human IgG1, kappa, V domains shown)
VH: B6 VH
VL: B5 VL with L30V, F53I, V99I
notes: Hybrid antibody
B8: 94-Fab-19H6-IgG1-LALA (bispecific antibody)
heavy: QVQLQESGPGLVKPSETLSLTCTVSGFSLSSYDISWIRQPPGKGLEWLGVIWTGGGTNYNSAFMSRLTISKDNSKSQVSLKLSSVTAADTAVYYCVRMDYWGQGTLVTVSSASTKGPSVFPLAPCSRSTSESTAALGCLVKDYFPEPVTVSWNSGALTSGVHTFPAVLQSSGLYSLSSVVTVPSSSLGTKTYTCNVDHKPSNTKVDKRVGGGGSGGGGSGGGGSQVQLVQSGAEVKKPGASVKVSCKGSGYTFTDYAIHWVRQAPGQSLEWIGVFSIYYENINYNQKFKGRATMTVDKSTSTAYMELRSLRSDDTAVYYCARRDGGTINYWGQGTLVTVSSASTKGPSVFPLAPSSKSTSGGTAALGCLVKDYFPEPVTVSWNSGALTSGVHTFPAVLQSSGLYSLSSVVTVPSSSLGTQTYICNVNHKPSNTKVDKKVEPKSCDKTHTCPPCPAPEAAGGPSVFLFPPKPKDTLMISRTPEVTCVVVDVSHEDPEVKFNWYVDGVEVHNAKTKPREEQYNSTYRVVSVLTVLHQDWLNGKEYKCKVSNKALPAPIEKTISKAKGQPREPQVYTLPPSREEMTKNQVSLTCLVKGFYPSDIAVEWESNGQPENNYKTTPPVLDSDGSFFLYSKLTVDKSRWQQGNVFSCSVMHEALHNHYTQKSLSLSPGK
light: DVVMTQSPLSLPVTLGQPASISCRSSQSLVHSNGNTYLHWYQQRPGQSPRLLIYKVSNRFSGVPDRFSGSGSGTDFTLKISRVEAEDVGVYFCSQSTHIPWTFGQGTKVEIKRTVAAPSVFIFPPSDEQLKSGTASVVCLLNNFYPREAKVQWKVDNALQSGNSQESVTEQDSKDSTYSLSSTLTLSKADYEKHKVYACEVTHQGLSSPVTKSFNRGEC
B9: 19H6-Fab-94-IgG1-LALA (bispecific antibody)
heavy: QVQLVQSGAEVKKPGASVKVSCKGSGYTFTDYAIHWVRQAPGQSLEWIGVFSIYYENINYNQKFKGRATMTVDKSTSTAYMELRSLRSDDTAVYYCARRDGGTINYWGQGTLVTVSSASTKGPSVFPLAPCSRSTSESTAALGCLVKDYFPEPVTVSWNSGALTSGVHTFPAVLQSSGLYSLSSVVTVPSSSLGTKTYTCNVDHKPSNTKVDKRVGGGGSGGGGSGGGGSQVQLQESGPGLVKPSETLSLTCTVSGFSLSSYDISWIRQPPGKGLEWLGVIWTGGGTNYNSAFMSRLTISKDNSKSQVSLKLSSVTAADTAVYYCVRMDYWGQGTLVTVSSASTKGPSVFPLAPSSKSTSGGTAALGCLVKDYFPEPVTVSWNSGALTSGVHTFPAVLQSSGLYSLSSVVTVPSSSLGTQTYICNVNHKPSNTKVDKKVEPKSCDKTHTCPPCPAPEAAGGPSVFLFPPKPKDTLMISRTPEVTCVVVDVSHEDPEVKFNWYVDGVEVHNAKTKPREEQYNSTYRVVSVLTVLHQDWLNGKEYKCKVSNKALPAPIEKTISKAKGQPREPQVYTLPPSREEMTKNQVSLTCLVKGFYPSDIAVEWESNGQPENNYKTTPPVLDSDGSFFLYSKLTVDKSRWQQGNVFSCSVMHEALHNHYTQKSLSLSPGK
light: B8 light
B10: mAb127 (antibody, human IgG4 S228P, kappa, V domains shown)
VH: QVQLVQSGAEVKKPGASVKVSCKASGYTFTSEWMNWVRQAPGQGLEWMGQIFPALGSTNYNEMYEGRVTMTTDTSTSTAYMELRSLRSDDTAVYYCARGIGNYALDAMDYWGQGTLVTVSS
VL: DIQMTQSPSSLSASVGDRVTITCRASESVDFYGNSFMHWYQQKPGKAPKLLIYLASNLESGVPSRFSGSGSGTDFTLTISSLQPEDFATYYCQQNIEDPLTFGGGTKVEIKR
notes: Anti-TGF-β, IgG4 (S228P), kappa; also called mAb127-HC+mAb127-LC
B11: 14-Fab-1D11-IgG4 (bispecific antibody)
heavy: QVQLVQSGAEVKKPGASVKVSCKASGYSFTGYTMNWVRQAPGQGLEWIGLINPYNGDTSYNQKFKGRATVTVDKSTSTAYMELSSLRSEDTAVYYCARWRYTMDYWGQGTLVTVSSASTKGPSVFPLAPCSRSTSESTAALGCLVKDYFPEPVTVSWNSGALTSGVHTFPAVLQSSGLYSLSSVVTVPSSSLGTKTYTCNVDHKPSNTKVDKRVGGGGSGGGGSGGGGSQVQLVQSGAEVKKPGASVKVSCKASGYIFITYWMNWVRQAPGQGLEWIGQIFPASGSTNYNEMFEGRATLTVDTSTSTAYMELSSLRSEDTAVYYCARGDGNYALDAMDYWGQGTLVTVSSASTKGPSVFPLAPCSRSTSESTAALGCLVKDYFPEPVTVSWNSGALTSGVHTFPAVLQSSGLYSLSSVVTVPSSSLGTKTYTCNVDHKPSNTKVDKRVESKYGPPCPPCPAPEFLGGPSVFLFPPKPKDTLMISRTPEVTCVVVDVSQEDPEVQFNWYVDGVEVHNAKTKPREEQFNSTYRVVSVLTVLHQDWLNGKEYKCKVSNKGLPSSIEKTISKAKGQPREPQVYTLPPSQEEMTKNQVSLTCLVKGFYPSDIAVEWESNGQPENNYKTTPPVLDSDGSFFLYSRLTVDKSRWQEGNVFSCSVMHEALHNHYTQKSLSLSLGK
light: DIVLTQSPASLAVSPGQRATITCRASESVDNYGNSFMNWYQQKPGQPPKPLIYFASNLESGVPARFSGSGSRTDFTLTINPVEADDTANYYCQQNNEAPPTFGQGTKVEIKRTVAAPSVFIFPPSDEQLKSGTASVVCLLNNFYPREAKVQWKVDNALQSGNSQESVTEQDSKDSTYSLSSTLTLSKADYEKHKVYACEVTHQGLSSPVTKSFNRGEC
B12: 127-Fab-14-IgG4 (bispecific antibody)
heavy: not shown
light: B11 light
B13: 1D11-Fab-14-IgG4 (bispecific antibody)
heavy: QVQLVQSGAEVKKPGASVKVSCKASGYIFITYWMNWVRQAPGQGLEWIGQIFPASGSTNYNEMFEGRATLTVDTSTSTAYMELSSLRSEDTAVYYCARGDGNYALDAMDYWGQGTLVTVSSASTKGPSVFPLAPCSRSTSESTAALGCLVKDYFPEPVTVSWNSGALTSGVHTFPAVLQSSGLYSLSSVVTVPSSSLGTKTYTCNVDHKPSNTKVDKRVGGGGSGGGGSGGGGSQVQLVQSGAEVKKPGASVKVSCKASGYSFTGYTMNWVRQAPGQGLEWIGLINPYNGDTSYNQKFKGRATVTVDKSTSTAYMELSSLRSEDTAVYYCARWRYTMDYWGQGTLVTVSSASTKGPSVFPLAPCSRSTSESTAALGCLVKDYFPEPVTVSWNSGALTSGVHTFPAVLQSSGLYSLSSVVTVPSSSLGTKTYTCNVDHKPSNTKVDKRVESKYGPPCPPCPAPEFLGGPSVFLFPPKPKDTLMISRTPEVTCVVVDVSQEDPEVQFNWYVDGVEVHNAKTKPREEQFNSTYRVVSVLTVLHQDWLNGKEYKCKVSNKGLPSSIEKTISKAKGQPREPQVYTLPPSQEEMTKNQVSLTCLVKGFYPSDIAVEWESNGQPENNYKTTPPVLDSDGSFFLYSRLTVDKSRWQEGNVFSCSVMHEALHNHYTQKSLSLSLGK
light: B11 light
B14: 14-Hu-HC+1D11-Hu-LC (antibody, human IgG4 S228P, kappa, V domains shown)
VH: QVQLVQSGAEVKKPGASVKVSCKASGYSFTGYTMNWVRQAPGQGLEWIGLINPYNGDTSYNQKFKGRATVTVDKSTSTAYMELSSLRSEDTAVYYCARWRYTMDYWGQGTLVTVSS
VL: DIVLTQSPASLAVSPGQRATITCRASESVDSYGNSFMHWYQQKPGQPPKLLIYLASNLESGVPARFSGSGSGTDFTLTINPVEADDTANYYCQQNNEDPLTFGGGTKVELKR
notes: Hybrid antibody
B15: 1D11-Hu (antibody, human IgG4 S228P, kappa, V domains shown)
VH: QVQLVQSGAEVKKPGASVKVSCKASGYIFITYWMNWVRQAPGQGLEWIGQIFPASGSTNYNEMFEGRATLTVDTSTSTAYMELSSLRSEDTAVYYCARGDGNYALDAMDYWGQGTLVTVSS
VL: B14 VL
notes: Humanized anti-TGF-β, IgG4 (S228P), kappa; also called 1D11-Hu-HC+1D11-Hu-LC
B16: 1D11-Hu-HC+14-Hu-LC (antibody, human IgG4 S228P, kappa, V domains shown)
VH: B15 VH
VL: B14 VL with S31N, H38N, L50P, L54F, G72R, D98A, L100P, G104Q, L110I
notes: Hybrid antibody
B17: 601-HC+20-Hu-LC (antibody, human IgG1, kappa, V domains shown)
VH: EVQLVESGGGLVQPGGSLRLSCAASGYTFTNYGMNWVRQAPGKGLEWVGWINTYTGEPTYAADFKRRFTFSLDTSKSTAYLQMNSLRAEDTAVYYCAKYPHYYGSSHWYFDVWGQGTLVTVSS
VL: DIQMTQSPSSLSASVGDRVTITCSASQGISNFLSWYQQKPGKTVKLLIYYTSSLHSGVPSRFSGSGSGTDYTFTISSLQPEDIATYYCQQYSNLPWTFGQGTKVEIKR
notes: Hybrid antibody
B18: 601-HC+601-LC-D28G (antibody, human IgG1, kappa, V domains shown)
VH: B17 VH
VL: DIQMTQSPSSLSASVGDRVTITCSASQGISNYLNWYQQKPGKAPKVLIYFTSSLHSGVPSRFSGSGSGTDFTLTISSLQPEDFATYYCQQYSTVPWTFGQGTKVEIKR
B19: 601-HC+601-LC-F71Y (antibody, human IgG1, kappa, V domains shown)
VH: B17 VH
VL: B18 VL with G28D, F71Y
B20: 601-HC+601-LC-F50Y (antibody, human IgG1, kappa, V domains shown)
VH: B17 VH
VL: B18 VL with G28D, F50Y
B21: 601-HC+601-LC-N34S (antibody, human IgG1, kappa, V domains shown)
VH: B17 VH
VL: B18 VL with G28D, N34S
B22: 20-Hu-HC+601-LC-D28G (antibody, human IgG4 S228P, kappa, V domains shown)
VH: EVQLVESGGGLVQPGGSLRLSCAASGFVFSNYDMSWVRQAPGKRLEWVATISGGGGYTYYSDSVKGRFTISRDNAKNSLYLQMNSLRAEDTAVYYCASPYGHYGFEYWGQGTLVTVSS
VL: B18 VL
B23: 20-Hu-HC+601-LC-F71Y (antibody, human IgG4 S228P, kappa, V domains shown)
VH: B22 VH
VL: B18 VL with G28D, F71Y
B24: 20-Hu-HC+601-LC-F50Y (antibody, human IgG4 S228P, kappa, V domains shown)
VH: B22 VH
VL: B18 VL with G28D, F50Y
B25: 20-Hu-HC+601-LC-N34S (antibody, human IgG4 S228P, kappa, V domains shown)
VH: B22 VH
VL: B18 VL with G28D, N34S
B26: 20-Hu-HC+601-LC-V46L (antibody, human IgG4 S228P, kappa, V domains shown)
VH: B22 VH
VL: B18 VL with G28D, V46L
B27: 20-Hu-HC+601-LC-Y32F (antibody, human IgG4 S228P, kappa, V domains shown)
VH: B22 VH
VL: B18 VL with G28D, Y32F
B28: 20-Hu-HC+601-LC-T93N (antibody, human IgG4 S228P, kappa, V domains shown)
VH: B22 VH
VL: B18 VL with G28D, T93N

molecular target: T1, PD1-ECD-His (human, UniProt Q15116 25-170); assay: ELISA, plate coated with PD1-ECD-His
T1 construct: extracellular domain; Bought; also called recombinant protein of the extracellular segment of human PD-1 with a polyhistidine tag (Sino Biological 10377-H08H); not shown: polyhistidine tag
T1 sequence (Q15116 25-170): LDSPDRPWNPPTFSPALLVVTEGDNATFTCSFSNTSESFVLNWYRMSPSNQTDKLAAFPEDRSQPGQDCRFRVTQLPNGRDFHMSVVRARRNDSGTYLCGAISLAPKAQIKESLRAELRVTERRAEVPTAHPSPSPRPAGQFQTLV

How did the EC50 turn out when B1 was run?
Its EC50 is 0.229 nM.

For B2, which EC50 is on record?
The EC50 was 1.42 nM.

Does B3 bind?
Result: no binding

Does B4 bind?
Result: no binding

molecular target: T2, HER2-ECD-His (human, UniProt P04626 23-652); assay: ELISA, plate coated with HER2-ECD-His
T2 construct: extracellular domain; Bought; also called recombinant protein of the extracellular segment of human Her-2 with a polyhistidine tag (ACROBiosystems HE2-H5225); not shown: polyhistidine tag

With B5 as the binder, how does the EC50 read?
Its EC50 is 0.139 nM.

Does B6 bind?
Result: no binding

Does B7 bind?
Result: no binding

B8 was tested. Which EC50 did it give?
Its EC50 is 0.158 nM.

Which EC50 does the source give for B9 here?
Its EC50 is 0.12 nM.

molecular target: TGF-β1 (Sino Biological, Cat. No. 10804-HNAC) (UniProt P01137 279-390); assay: ELISA, plate coated with TGF-β1
Sequence (P01137 279-390 limits assumed): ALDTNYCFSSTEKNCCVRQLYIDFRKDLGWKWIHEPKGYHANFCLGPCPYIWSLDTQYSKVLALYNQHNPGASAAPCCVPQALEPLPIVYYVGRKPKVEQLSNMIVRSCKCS

B10 was tested. Which EC50 did it give?
Its EC50 is 0.0414 nM.

For B11, which EC50 is on record?
Its EC50 is 0.699 nM.

With B12 as the binder, how does the EC50 read?
The EC50 was 0.108 nM.

Which EC50 does the source give for B13 here?
The EC50 was 0.363 nM.

Does B14 bind?
Result: no binding

For B15, which EC50 is on record?
Its EC50 is 0.0662 nM and 0.134 nM.

Which EC50 does the source give for B16 here?
Its EC50 is 0.525 nM and 1.27 nM.

molecular target: T3, VEGF165-His (human, UniProt P15692-4 27-191); assay: ELISA, plate coated with VEGF165-His
T3 construct: also called Human VEGF165 with a 6*His tag
T3 sequence: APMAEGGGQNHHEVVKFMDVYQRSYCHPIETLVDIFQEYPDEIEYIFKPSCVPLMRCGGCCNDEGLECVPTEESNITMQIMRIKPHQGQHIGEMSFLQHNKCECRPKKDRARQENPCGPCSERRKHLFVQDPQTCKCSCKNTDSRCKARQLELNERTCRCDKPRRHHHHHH

B17 was tested. Which EC50 did it give?
Its EC50 is 8.22 nM.

B18 was tested. Which EC50 did it give?
Its EC50 is 0.133 nM.

How did the EC50 turn out when B19 was run?
Its EC50 is 0.148 nM.

For B20, which EC50 is on record?
The EC50 was 0.14 nM.

With B21 as the binder, how does the EC50 read?
Its EC50 is 0.208 nM.

molecular target: T4, CD137-ECD-Fc (human, UniProt Q07011 24-186); assay: ELISA, plate coated with CD137-ECD-Fc
T4 construct: extracellular domain; Bought; also called recombinant protein of the extracellular segment of human CD137 with Fc tags (Sino Biological 10041-H02H); not shown: Fc tag
T4 sequence (Q07011 24-186): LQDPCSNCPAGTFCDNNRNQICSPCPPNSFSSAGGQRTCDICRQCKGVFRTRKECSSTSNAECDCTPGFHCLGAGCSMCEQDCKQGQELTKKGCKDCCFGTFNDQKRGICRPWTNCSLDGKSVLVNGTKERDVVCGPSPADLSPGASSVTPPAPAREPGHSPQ

With B1 as the binder, how does the EC50 read?
The EC50 was 0.357 nM.

With B2 as the binder, how does the EC50 read?
Its EC50 is 0.242 nM.

Does B5 bind?
Result: no binding

With B6 as the binder, how does the EC50 read?
Its EC50 is 0.391 nM.

How did the EC50 turn out when B7 was run?
The EC50 was 0.634 nM.

B3 was tested. Which EC50 did it give?
Its EC50 is 0.461 nM.

Does B4 bind?
Result: no binding

B8 was tested. Which EC50 did it give?
The EC50 was 0.241 nM.

B9 was tested. Which EC50 did it give?
Its EC50 is 27.6 nM.

molecular target: T5, PD1-His (human, UniProt Q15116 25-170); assay: ELISA, plate coated with PD1-His
T5 construct: extracellular domain; In-house protein; also called extracellular domain protein of human PD-1 with a 6*His tag
T5 sequence (Q15116 other isoform, or with tags, fused parts or gaps): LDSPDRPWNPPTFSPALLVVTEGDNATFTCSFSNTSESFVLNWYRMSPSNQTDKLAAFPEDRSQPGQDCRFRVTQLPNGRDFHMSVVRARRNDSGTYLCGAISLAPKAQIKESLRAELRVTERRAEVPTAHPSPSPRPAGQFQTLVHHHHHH

Which EC50 does the source give for B22 here?
The EC50 was 0.485 nM.

Which EC50 does the source give for B23 here?
The EC50 was 1.03 nM.

For B24, which EC50 is on record?
Its EC50 is 0.525 nM.

Which EC50 does the source give for B25 here?
The EC50 was 0.175 nM.

B26 was tested. Which EC50 did it give?
Its EC50 is 0.533 nM.

With B27 as the binder, how does the EC50 read?
Its EC50 is 0.456 nM.

How did the EC50 turn out when B28 was run?
The EC50 was 0.486 nM.

Which EC50 does the source give for B11 here?
Its EC50 is 0.437 nM.

B12 was tested. Which EC50 did it give?
Its EC50 is 3.96 nM.

For B13, which EC50 is on record?
The EC50 was 2 nM.

Does B14 bind?
Result: no binding

Does B15 bind?
Result: no binding

Does B16 bind?
Result: no binding
